Drawing on publication PMC8982573 (EMBO Reports, 2022), this text covers Kd for 1 molecule.

For orientation: Kd means the constant that tells how readily two partners part at equilibrium. A lower Kd goes with tighter binding.

This experiment concerns the target SARS-CoV-2 spike receptor-binding domain fused to Venus YFP (RBD-vYFP) (SARS-CoV-2, UniProt P0DTC2 330-526, chemically biotinylated using NHS-Biotin). Nature of the experiment: grating-coupled interferometry (GCI). Particulars: both partners purified.

B1: Sybody Sb#15 (VHH)
VHH: QVQLVESGGGLVQAGGSLRLSCAASGFPVKNFEMEWYRKAPGKEREWVAAIQSGGVETYYADSVKGRFTISRDNAKNTVYLQMNSLKPEDTAVYYCFVYVGRSYIGQGTQVTVS
notes: also called Sb#y15; source: E. coli MC1061, periplasm, purified (Ni-NTA, SEC)
Consider B1, for which the Kd amounted to 14.4 nM.
